Reference: US20190212291

Tests used:
PEG-T7-Q = biological target: T1, PEG-T7-Q
T1 chain: GGPLGVRGKKC

B1: MMP11 (protein)
chain: FVLSGGRWEKTDLTYRILRFPWQLVQEQVRQTMAEALKVWSDVTPLTFTEVHEGRADIMIDFARYWHGDDLPFDGPGGILAHAFFPKTHREGDVHFDYDETWTIGDDQGTDLLQVAAHEFGHVLGLQHTTAAKALMSAFYTFRYPLSLSPDDCRGVQHLYGQPWPTVTSRTPALG
Top hit (cleavage of PEG-coupled FRET substrate by recombinant proteases) (PEG-T53-Q): MMP11

B2: ADAM12 (protein)
chain: ETLKATKYVELVIVADNREFQRQGKDLEKVKQRLIEIANHVDKFYRPLNIRIVLVGVEVWNDMDKCSVSQDPFTSLHEFLDWRKMKLLPRKSHDNAQLVSGVYFQGTTIGMAPIMSMCTADQSGGIVMDHSDNPLGAAVTLAHELGHNFGMNHDTLDRGCSCQMAVEKGGCIMNASTGYPFPMVFSSCSRKDLETSLEKGMGVCLFNLPEVRESFGGQKCGNRFVEEGEECDCGEPEECMNRCCNATTCTLKPDAVCAHGLCCEDCQLKPAGTACRDSSNSCDLPEFCTGASPHCPANVYLHDGHSCQDVDGYCYNGICQTHEQQCVTLWGPGAKPAPGICFERVNSAGDPYGNCGKVSKSSFAKCEMRDAKCGKIQCQGGASRPVIGTNAVSIETNIPLQQGGRILCRGTHVYLGDDMPDPGLVLAGTKCADGKICLNRQCQNISVFGVHECAMQCHGRGVCNNRKNCHCEAHWAPPFCDKFGFGGSTDSGPIRQADNQG
Top hit (cleavage of PEG-coupled FRET substrate by recombinant proteases) (PEG-T54-Q): ADAM12 | Second hit (cleavage of PEG-coupled FRET substrate by recombinant proteases) (PEG-T40-Q): ADAM12 | Top hit (cleavage of PEG-coupled FRET substrate by recombinant proteases); additional note: Poorly cleaved (PEG-T41-Q): ADAM12

B3: KLK12 (protein)
chain: IFNGTECGRNSQPWQVGLFEGTSLRCGGVLIDHRWVLTAAHCSGSRYWVRLGEHSLSQLDWTEQIRHSGFSVTHPGYLGASTSHEHDLRLLRLRLPVRVTSSVQPLPLPNDCATAGTECHVSGWGITNHPRNPFPDLLQCLNLSIVSHATCHGVYPGRITSNMVCAGGVPGQDACQGDSGGPLVCGGVLQGLVSWGSVGPCGQDGIPGVYTYICKYVDWIRMIMRNN
Second hit (cleavage of PEG-coupled FRET substrate by recombinant proteases) (PEG-T50-Q): KLK12

B4: MMP26 (protein)
chain: TSISPGRCKWNKHTLTYRIINYPHDMKPSAVKDSIYNAVSIWSNVTPLIFQQVQNGDADIKVSFWQWAHEDGWPFDGPGGILGHAFLPNSGNPGVVHFDKNEHWSASDTGYNLFLVATHEIGHSLGLQHSGNQSSIMYPTYWYHDPRTFQLSADDIQRIQHLYGEKCSSDIP
Second hit (cleavage of PEG-coupled FRET substrate by recombinant proteases) (PEG-T7-Q): MMP26 | Top hit (cleavage of PEG-coupled FRET substrate by recombinant proteases) (PEG-T40-Q): MMP26 | substrate cleavage (PEG-T40-Q): T40 and T51 are cleaved by MMP26 and KLK4, respectively | Second hit (cleavage of PEG-coupled FRET substrate by recombinant proteases) (PEG-T53-Q): MMP26

B5: KLK4 (protein)
chain: IINGEDCSPHSQPWQAALVMENELFCSGVLVHPQWVLSAAHCFQNSYTIGLGLHSLEADQEPGSQMVEASLSVRHPEYNRPLLANDLMLIKLDESVSESDTIRSISIASQCPTAGNSCLVSGWGLLANGRMPTVLQCVNVSVVSEEVCSKLYDPLYHPSMFCAGGGHDQKDSCNGDSGGPLICNGYLQGLVSFGKAPCGQVGVPGVYTNLCKFTEWIEKTVQAS
Top hit (cleavage of PEG-coupled FRET substrate by recombinant proteases) (PEG-T51-Q): KLK4 | substrate cleavage (PEG-T51-Q): T40 and T51 are cleaved by MMP26 and KLK4, respectively

B6: KLK14 (protein)
chain: IIGGHTCTRSSQPWQAALLAGPRRRFLCGGALLSGQWVITAAHCGRPILQVALGKHNLRRWEATQQVLRVVRQVTHPNYNSRTHDNDLMLLQLQQPARIGRAVRPIEVTQACASPGTSCRVSGWGTISSPIARYPASLQCVNINISPDEVCQKAYPRTITPGMVCAGVPQGGKDSCQGDSGGPLVCRGQLQGLVSWGMERCALPGYPGVYTNLCKYRSWIEETMRDK
Top hit (cleavage of PEG-coupled FRET substrate by recombinant proteases) (PEG-T50-Q): KLK14 | Top hit (cleavage of PEG-coupled FRET substrate by recombinant proteases) (PEG-T49-Q): KLK14

B7: PRSS3 (protein)
chain: IVGGYTCEENSLPYQVSLNSGSHFCGGSLISEQWVVSAAHCYKTRIQVRLGEHNIKVLEGNEQFINAAKIIRHPKYNRDTLDNDIMLIKLSSPAVINARVSTISLPTTPPAAGTECLISGWGNTLSFGADYPDELKCLDAPVLTQAECKASYPGKITNSMFCVGFLEGGKDSCQRDSGGPVVCNGQLQGVVSWGHGCAWKNRPGVYTKVYNYVDWIKDTIAANS
Second hit (cleavage of PEG-coupled FRET substrate by recombinant proteases) (PEG-T58-Q): PRSS3 | Second hit (cleavage of PEG-coupled FRET substrate by recombinant proteases) (PEG-T49-Q): PRSS3
